Measured values taken from US20250352667A1.
Substitutions are numbered along the chain they refer to. Names and notes keep the numbering of the source.

Columns and labels:
[1] = target: KEAP1 (wild-type full-length), His-tagged (human) (UniProt Q14145); experiment: AlphaScreen; 4.8 nM FLAG-NRF2, 150 nM His-KEAP1; Rep 1; control for I28V
[2] = target: KEAP1 (wild-type full-length), His-tagged (human) (UniProt Q14145); experiment: AlphaScreen; 76.8 nM FLAG-NRF2, 150 nM His-KEAP1; Rep 2; control for I86V
[3] = target: KEAP1 (wild-type full-length), His-tagged (human) (UniProt Q14145); experiment: AlphaScreen; 153.6 nM FLAG-NRF2, 150 nM His-KEAP1; Rep 1; control for I86V
[4] = target: KEAP1 (wild-type full-length), His-tagged (human) (UniProt Q14145); experiment: AlphaScreen; 307.2 nM FLAG-NRF2, 150 nM His-KEAP1; Rep 1; control for I86V
[5] = target: KEAP1 (wild-type full-length), His-tagged (human) (UniProt Q14145); experiment: AlphaScreen; 614.4 nM FLAG-NRF2, 150 nM His-KEAP1; signal against NRF2 only; control for I86V
[6] = target: KEAP1 (wild-type full-length), His-tagged (human) (UniProt Q14145); experiment: AlphaScreen; FLAG-NRF2 wt isoform 1 9.6 nM, His-KEAP1 150 nM; Rep 2; positive control for I86V
[7] = target: KEAP1 (wild-type full-length), His-tagged (human) (UniProt Q14145); experiment: AlphaScreen; FLAG-NRF2 wt isoform 1 4.8 nM, His-KEAP1 150 nM; Rep 2; positive control for Q75R
[8] = target: KEAP1 (wild-type full-length), His-tagged (human) (UniProt Q14145); experiment: AlphaScreen; FLAG-NRF2 wt isoform 1 9.6 nM, His-KEAP1 150 nM; Rep 2; positive control for Q75R
[9] = target: KEAP1 (wild-type full-length), His-tagged (human) (UniProt Q14145); experiment: AlphaScreen; FLAG-NRF2 wt isoform 1 153.6 nM, His-KEAP1 150 nM; Rep 1; positive control for Q75R
[10] = target: KEAP1 (wild-type full-length), His-tagged (human) (UniProt Q14145); experiment: AlphaScreen; FLAG-NRF2 wt isoform 1 1228.8 nM, His-KEAP1 150 nM; Rep 1; positive control for Q75R
[11] = target: KEAP1 (wild-type full-length), His-tagged (human) (UniProt Q14145); experiment: AlphaScreen; NRF2 wt isoform 1 76.8 nM, KEAP1 150 nM; signal against NRF2-only control; control for Q75R
[12] = target: KEAP1 (wild-type full-length), His-tagged (human) (UniProt Q14145); experiment: AlphaScreen; NRF2 wt isoform 1 153.6 nM, KEAP1 150 nM; signal against NRF2-only control; control for Q75R
[13] = target: KEAP1 (wild-type full-length), His-tagged (human) (UniProt Q14145); experiment: AlphaScreen; FLAG-NRF2 I86V 4.8 nM, His-KEAP1 150 nM; Rep 1
[14] = target: KEAP1 (wild-type full-length), His-tagged (human) (UniProt Q14145); experiment: AlphaScreen; FLAG-NRF2 I86V 19.2 nM, His-KEAP1 150 nM; Rep 3
[15] = target: KEAP1 (wild-type full-length), His-tagged (human) (UniProt Q14145); experiment: AlphaScreen; FLAG-NRF2 I86V 614.4 nM, His-KEAP1 150 nM; Rep 3
[16] = target: KEAP1 (wild-type full-length), His-tagged (human) (UniProt Q14145); experiment: AlphaScreen; NRF2 I86V 38.4 nM, KEAP1 150 nM; relative to wild-type NRF2 isoform 1 (100 %)
[17] = target: KEAP1 (wild-type full-length), His-tagged (human) (UniProt Q14145); experiment: AlphaScreen; 9.6 nM FLAG-NRF2, 150 nM His-KEAP1; Rep 1
[18] = target: KEAP1 (wild-type full-length), His-tagged (human) (UniProt Q14145); experiment: AlphaScreen; 19.2 nM FLAG-NRF2, 150 nM His-KEAP1; Rep 2
[19] = target: KEAP1 (wild-type full-length), His-tagged (human) (UniProt Q14145); experiment: AlphaScreen; 153.6 nM FLAG-NRF2, 150 nM His-KEAP1; Rep 1
[20] = target: KEAP1 (wild-type full-length), His-tagged (human) (UniProt Q14145); experiment: AlphaScreen; 307.2 nM FLAG-NRF2, 150 nM His-KEAP1; Rep 2
[21] = target: KEAP1 (wild-type full-length), His-tagged (human) (UniProt Q14145); experiment: AlphaScreen; 1228.8 nM FLAG-NRF2, 150 nM His-KEAP1; Rep 1
[22] = target: KEAP1 (wild-type full-length), His-tagged (human) (UniProt Q14145); experiment: AlphaScreen; 9.6 nM FLAG-NRF2, 150 nM His-KEAP1; against wild-type NRF2 isoform 1 = 100%
[23] = target: KEAP1 (wild-type full-length), His-tagged (human) (UniProt Q14145); experiment: AlphaScreen; 38.4 nM FLAG-NRF2, 150 nM His-KEAP1; against wild-type NRF2 isoform 1 = 100%
[24] = target: KEAP1 (wild-type full-length), His-tagged (human) (UniProt Q14145); experiment: AlphaScreen; FLAG-NRF2 Q75R 9.6 nM, His-KEAP1 150 nM; Rep 2
[25] = target: KEAP1 (wild-type full-length), His-tagged (human) (UniProt Q14145); experiment: AlphaScreen; FLAG-NRF2 Q75R 153.6 nM, His-KEAP1 150 nM; Rep 2
[26] = target: KEAP1 (wild-type full-length), His-tagged (human) (UniProt Q14145); experiment: AlphaScreen; FLAG-NRF2 Q75R 614.4 nM, His-KEAP1 150 nM; Rep 1
[27] = target: KEAP1 (wild-type full-length), His-tagged (human) (UniProt Q14145); experiment: AlphaScreen; NRF2 Q75R 76.8 nM, KEAP1 150 nM; signal against NRF2-only control

KEAP1 (wild-type full-length), His-tagged (human), sequence (Q14145 2-624 limits assumed): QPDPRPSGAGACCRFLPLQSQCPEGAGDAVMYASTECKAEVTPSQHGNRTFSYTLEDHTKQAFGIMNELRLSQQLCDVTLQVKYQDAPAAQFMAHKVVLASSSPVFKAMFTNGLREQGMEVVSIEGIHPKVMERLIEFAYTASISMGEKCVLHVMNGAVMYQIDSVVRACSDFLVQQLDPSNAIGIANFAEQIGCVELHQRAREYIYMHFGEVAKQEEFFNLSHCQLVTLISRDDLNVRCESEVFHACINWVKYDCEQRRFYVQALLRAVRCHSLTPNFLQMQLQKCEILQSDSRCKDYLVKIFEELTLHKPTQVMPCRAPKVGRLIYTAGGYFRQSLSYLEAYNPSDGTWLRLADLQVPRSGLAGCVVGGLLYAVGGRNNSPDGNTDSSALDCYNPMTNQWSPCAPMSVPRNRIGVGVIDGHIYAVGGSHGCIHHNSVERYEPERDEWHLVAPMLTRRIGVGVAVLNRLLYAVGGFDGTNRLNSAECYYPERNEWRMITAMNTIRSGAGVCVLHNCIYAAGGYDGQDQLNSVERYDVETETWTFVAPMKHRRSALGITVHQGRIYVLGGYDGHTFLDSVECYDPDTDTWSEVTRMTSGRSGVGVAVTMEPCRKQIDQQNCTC

B1: NRF2 isoform 1 (wild-type full-length), FLAG-tagged (protein)
chain: MMDLELPPPGLPSQQDMDLIDILWRQDIDLGVSREVFDFSQRRKEYELEKQKKLEKERQEQLQKEQEKAFFAQLQLDEETGEFLPIQPAQHIQSETSGSANYSQVAHIPKSDALYFDDCMQLLAQTFPFVDDNEVSSATFQSLVPDIPGHIESPVFIATNQAQSPETSVAQVAPVDLDGMQQDIEQVWEELLSIPELQCLNIENDKLVETTMVPSPEAKLTEVDNYHFYSSIPSMEKEVGNCSPHFLNAFEDSFSSILSTEDPNQLTVNSLNSDATVNTDFGDEFYSAFIAEPSISNSMPSPATLSHSLSELLNGPIDVSDLSLCKAFNQNHPESTAEFNDSDSGISLNTSPSVASPEHSVESSSYGDTLLGLSDSEVEELDSAPGSVKQNGPKTPVHSSGDMVQPLSPSQGQSTHVHDAQCENTPEKELPVSPGHRKTPFTKDKHSSRLEAHLTRDELRAKALHIPFPVEKIINLPVVDFNEMMSKEQFNEAQLALIRDIRRRGKNKVAAQNCRKRKLENIVELEQDLDHLKDEKEKLLKEKGENDKSLHLLKKQLSTLYLEVFSMLRDEDGKPYSPSEYSLQQTRDGNVFLVPKSKKPDVKKN
B1 showed an A-counts [1] of 1120 A-counts, an A-counts [2] of 2780 A-counts and an A-counts [3] of 3060 A-counts. It also gave an A-counts [4] of 2640 A-counts, a S/N [5] of 1.1 and an A-counts (NRF2 plus KEAP1) [6] of 2720 A-counts. For the same binder, the A-counts (NRF2 plus KEAP1) [7] was 754 A-counts, the A-counts (NRF2 plus KEAP1) [8] was 900 A-counts and the A-counts (NRF2 plus KEAP1) [9] was 1380 A-counts. It also gave an A-counts (NRF2 plus KEAP1) [10] of 1490 A-counts, a S/N [11] of 2.5 and a S/N [12] of 2.1.

B2: NRF2 isoform 1 (I86V full-length), FLAG-tagged (protein)
chain: B1 chain with I86V
B2 was tested, and the A-counts (NRF2 plus KEAP1) [13] was 2170 A-counts, the A-counts (NRF2 plus KEAP1) [14] was 2970 A-counts and the A-counts (NRF2 plus KEAP1) [15] was 1920 A-counts. For the same binder, the Binding Percentage [16] was 93.7%.

B3: NRF2 isoform 1 (I28V full-length), FLAG-tagged (protein)
chain: B1 chain with I28V
In the case of B3, the A-counts [17] is reported as 1570 A-counts, the A-counts [18] is reported as 1700 A-counts and the A-counts [19] is reported as 1400 A-counts. For the same binder, the A-counts [20] was 1260 A-counts, the A-counts [21] was 995 A-counts and the Binding Percentage (%) [22] was 77.6%. The Binding Percentage (%) [23] was 63.5%.

B4: NRF2 isoform 1 (Q75R full-length), FLAG-tagged (protein)
chain: B1 chain with Q75R
Binder B4 has an A-counts (NRF2 plus KEAP1) [24] of 1090 A-counts, an A-counts (NRF2 plus KEAP1) [25] of 991 A-counts and an A-counts (NRF2 plus KEAP1) [26] of 855 A-counts. It also gave a S/N [27] of 1.8.
